Target: T1, WT hTNF (wild type human TNF-α, N-terminal 6×His tag) (human, UniProt P01375 77-233)
T1 construct: also called His-TNF
Test: BLI (Octet RED96), His-tagged hTNF on HIS1K biosensor, soluble receptor in solution, global 1:1 fit
Procedure: KD values were calculated using global fitting with a 1:1 model (R²≥0.95).

T1 sequence (P01375 other isoform, or with tags, fused parts or gaps limits assumed): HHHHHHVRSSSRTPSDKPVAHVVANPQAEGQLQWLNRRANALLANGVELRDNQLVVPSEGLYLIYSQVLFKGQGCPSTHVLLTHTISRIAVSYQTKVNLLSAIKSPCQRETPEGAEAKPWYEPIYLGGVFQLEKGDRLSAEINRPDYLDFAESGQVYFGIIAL

B1: soluble hTNF-R1 (Peprotech) (receptor, human, UniProt P19438 41-201, looked up)
chain: DSVCPQGKYIHPQNNSICCTKCHKGTYLYNDCPGPGQDTDCRECESGSFTASENHLRHCLSCSKCRKEMGQVEISSCTVDRDTVCGCRKNQYRHYWSENLFQCFNCSLCLNGTVHLSCQEKQNTVCTCHAGFFLRENECVSCSNCKKSLECTKLCLPQIEN
notes: Bought soluble receptor used as analyte in the Octet assay; also called p55
Kd: 10.2 nM
